Experimental data from IntAct's records for PubMed 20048159.

B1: Ras-related protein Rab-9A (Homo sapiens), P51151 (parent)
chain: MAGKSSLFKVILLGDGGVGKSSLMNRYVTNKFDTQLFHTIGVEFLNKDLEVDGHFVTMQIWDTAGQERFRSLRTPFYRGSDCCLLTFSVDDSQSFQNLSNWKKEFIYYADVKEPESFPFVILGNKIDISERQVSTEEAQAWCRDNGDYPYFETSAKDATNVAAAFEEAVRRVLATEDRSDHLIQTDTVNLHRKPKPSSSCC
partner: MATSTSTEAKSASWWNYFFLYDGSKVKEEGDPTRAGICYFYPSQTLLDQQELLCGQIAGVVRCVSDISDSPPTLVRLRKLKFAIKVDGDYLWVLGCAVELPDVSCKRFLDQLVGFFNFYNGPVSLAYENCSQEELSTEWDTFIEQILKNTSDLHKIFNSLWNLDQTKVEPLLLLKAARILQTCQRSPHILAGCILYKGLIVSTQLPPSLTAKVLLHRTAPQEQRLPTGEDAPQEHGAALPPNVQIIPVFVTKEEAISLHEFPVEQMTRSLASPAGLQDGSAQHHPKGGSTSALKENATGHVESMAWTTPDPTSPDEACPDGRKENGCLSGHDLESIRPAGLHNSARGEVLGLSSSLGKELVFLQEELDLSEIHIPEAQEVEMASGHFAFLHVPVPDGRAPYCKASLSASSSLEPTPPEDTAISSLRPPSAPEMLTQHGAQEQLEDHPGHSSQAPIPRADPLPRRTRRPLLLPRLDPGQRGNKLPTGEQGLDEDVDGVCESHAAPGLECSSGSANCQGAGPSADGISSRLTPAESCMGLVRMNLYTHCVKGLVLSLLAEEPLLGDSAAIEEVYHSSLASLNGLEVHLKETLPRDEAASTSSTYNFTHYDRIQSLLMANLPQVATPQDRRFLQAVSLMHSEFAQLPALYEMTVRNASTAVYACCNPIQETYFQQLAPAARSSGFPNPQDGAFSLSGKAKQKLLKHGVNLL

Variants of: B1
Details: with hps4_human HPS4, Q9NQG7

Variant	effect of a mutation on the interaction
T34A;Q66L	with no effect
Q66L;L72A	with no effect
Q66L;F76A	with no effect
H38A;Q66L	with no effect
F44A;Q66L	disrupting interaction strength

Further lines, results first:

effect of a mutation on the interaction	Variant
disrupting interaction strength	I40A;Q66L
with no effect	Q35A;Q66L
with no effect	V42A;Q66L
disrupting interaction strength	W61A;Q66L
with no effect	Q66L
